T1: PPIH W133A mutant (human, UniProt O43447 1-177, W133A)
T1 sequence: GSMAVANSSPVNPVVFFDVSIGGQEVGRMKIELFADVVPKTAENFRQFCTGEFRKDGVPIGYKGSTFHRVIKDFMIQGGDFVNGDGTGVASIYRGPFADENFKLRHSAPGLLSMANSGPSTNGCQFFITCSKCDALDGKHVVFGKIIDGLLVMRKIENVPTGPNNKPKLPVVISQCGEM

B1: pre-mRNA processing factor 4 (PRPF4), residues 1-98 (domain or fragment, human, UniProt O43172 1-98, looked up)
chain: MASSRASSTQATKTKAPDDLVAPVVKKPHIYYGSLEEKERERLAKGESGILGKDGLKAGIEAGNINITSGEVFEIEEHISERQAEVLAEFERRKRARQ
B2: pre-mRNA processing factor 4 (PRPF4), residues 1-169 (domain or fragment, human, UniProt O43172 1-169, looked up)
chain: MASSRASSTQATKTKAPDDLVAPVVKKPHIYYGSLEEKERERLAKGESGILGKDGLKAGIEAGNINITSGEVFEIEEHISERQAEVLAEFERRKRARQINVSTDDSEVKACLRALGEPITLFGEGPAERRERLRNILSVVGTDALKKTKKDDEKSKKSKEEYQQTWYHE
B3: PRPF4 residues 1-169 with F122A (domain or fragment, human, UniProt O43172 1-169, looked up)
chain: MASSRASSTQATKTKAPDDLVAPVVKKPHIYYGSLEEKERERLAKGESGILGKDGLKAGIEAGNINITSGEVFEIEEHISERQAEVLAEFERRKRARQINVSTDDSEVKACLRALGEPITLAGEGPAERRERLRNILSVVGTDALKKTKKDDEKSKKSKEEYQQTWYHE
B4: pre-mRNA processing factor 4 (PRPF4), residues 106-169 (domain or fragment, human, UniProt O43172 106-169, looked up)
chain: SEVKACLRALGEPITLFGEGPAERRERLRNILSVVGTDALKKTKKDDEKSKKSKEEYQQTWYHE
B5: PRPF4 residues 106-169 with F122A (domain or fragment, human, UniProt O43172 106-169, looked up)
chain: SEVKACLRALGEPITLAGEGPAERRERLRNILSVVGTDALKKTKKDDEKSKKSKEEYQQTWYHE

Tests used:
[1] = target: T2, peptidyl-prolyl isomerase H (PPIH), full length, wild type (human, UniProt O43447 1-177); test: SPR
PPIH W133A mutant = target: T1, PPIH W133A mutant; test: SPR
[2] = target: T2, peptidyl-prolyl isomerase H (PPIH), …; test: AUC

Row | Binder | Kd [1] | binding result (PPIH W133A mutant) | stoichiometry N [2] | Kd (PPIH W133A mutant)
1 | B1 | 10.8 ± 1.37 µM | binds |  | 
2 | B2 | 0.39 ± 0.04 µM | binds |  | 
3 | B3 | 15.6 µM |  |  | 
4 | B4 |  | binds | 2 | 
5 | B5 |  |  |  | 1 µM

Reference: PMC5682932 (The Biochemical journal, 2017)
